This is an account of results in article PMC6077200.

For the experiment, the target named is nicotinic acetylcholine receptors containing subunits α7, α9 and α10 of monocytic U937 cells (human (endogenous in U937)) (UniProt P36544).

B1: purified human endogenous C-reactive protein (natural protein)
chain: QTDMSRKAFVFPKESDTSYVSLKAPLTKPLKAFTVCLHFYTELSSTRGYSIFSYATKRQDNEILIFWSKDIGYSFTVGGSEILFEVPEVTVAPVHICTSWESASGIVEFWVDGKPRVRKSLKKGYTVGAEASIILGQEQDSFGGNFEGSQSLVGDIGNVNMWDFVLSPDEINTIYLGGPFSPNVLNWRALKYEVQGEVFTKPQLWP
B1 displayed an IC50 of eCRP for inhibition of BzATP-induced (100 µM) IL-1β release from LPS-primed U937 cells (the paper says this corresponds to about 40 nM pentameric CRP) of 4.9 µg/mL.
